Changes are numbered by the printed parent chain.
T1: MMP1 catalytic domain (MMP1CAT) (UniProt P03956 100-269)
T1 construct: catalytic domain of MMP1 (collagenase); source: purified as previously described [66, 91]
T1 sequence (looked up): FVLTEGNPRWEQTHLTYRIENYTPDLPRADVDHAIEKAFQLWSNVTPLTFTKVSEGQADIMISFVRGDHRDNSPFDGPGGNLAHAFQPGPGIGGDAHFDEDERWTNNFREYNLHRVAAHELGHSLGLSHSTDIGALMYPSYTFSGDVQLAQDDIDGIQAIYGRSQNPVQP

T2: MMP9 catalytic domain lacking the fibronectin-like domain (MMP9CAT, residues 107-215 and 391-443) (human, UniProt P14780 107-215; P14780 391-443, conjugated to DyLight-650 for the yeast display sorting and flow cytometry)
T2 chain (looked up): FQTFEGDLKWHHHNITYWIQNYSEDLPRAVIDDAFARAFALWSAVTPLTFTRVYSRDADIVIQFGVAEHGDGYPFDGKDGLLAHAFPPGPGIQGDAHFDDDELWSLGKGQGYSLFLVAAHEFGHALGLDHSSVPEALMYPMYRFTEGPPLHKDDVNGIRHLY

B1: N-TIMP2WT, wild type N-terminal domain of the tissue inhibitor of metalloproteinase-2, soluble form (domain or fragment, UniProt P16035 27-153, looked up)
chain: CSCSPVHPQQAFCNADVVIRAKAVSEKEVDSGNDIYGNPIKRIQYEIKQIKMFKGPEKDIEFIYTAPSSAVCGVSLDVGGKKEYLIAGKAEGDGKMHITLCDFIVPWDTLSTTQKKSLNHRYQMGCE
notes: limits worked out from the printed primers (forward primer encodes CSCSP, reverse primer ends at YQMGCE); also called wild-type N-TIMP-2; source: P. pastoris X33 (pPICZalphaA), secreted, purified (Ni-NTA, Superdex 75 SEC)
B2: N-TIMP2_(14_17), soluble form (designed binder)
chain: B1 chain with S4D, I35L, N38S, S68D, V71S, H97S, T99F
notes: limits worked out from the printed primers (forward primer encodes CSCD, reverse primer ends at YQMGCE); source: P. pastoris X33 (pPICZalphaA), secreted, purified (Ni-NTA, Superdex 75 SEC)
B3: N-TIMP2_(9_13), soluble form (designed binder)
chain: B1 chain with S4P, I35P, N38W, S68N, H97K, T99K
notes: limits worked out from the printed primers (forward primer encodes CSCP, reverse primer ends at YQMGCE); source: P. pastoris X33 (pPICZalphaA), secreted, purified (Ni-NTA, Superdex 75 SEC)
B4: N-TIMP2_(14_18), soluble form (designed binder)
chain: B1 chain with S4K, I35L, N38F, S68F, H97E
notes: limits worked out from the printed primers (forward primer encodes CSCK, reverse primer ends at YQMGCE); also called N-TMP2_(14_18); source: P. pastoris X33 (pPICZalphaA), secreted, purified (Ni-NTA, Superdex 75 SEC)
B5: N-TIMP2_(9_1), soluble form (designed binder)
chain: B1 chain with S4P, I35P, N38W, S68N, V71I, H97M, T99K
notes: as for B3

biological target: T1, MMP1 catalytic domain (MMP1CAT); experiment: enzyme inhibition assay (fluorogenic substrate, fit to Morrison's tight binding equation); 0.0075 nM MMP14CAT or MMP9CAT (MMP1CAT, MMP10CAT: concentration not stated) incubated with 0.4-25 nM or 1.5-500 nM inhibitor for 1 h at 37 C in TCNB buffer (50 mM Tris-HCl pH 7.5, 100 mM NaCl, 5 mM CaCl2, 0.05% Brij), then 15 uM Mca-Pro-Leu-Gly-Leu-Dpa-Ala-Arg-NH2; Ki from the apparent Ki; mean of three experiments; conditions: both partners purified

Row | Ki | Binder
1 | 0.7 ± 0.1 nM | B1
2 | 0.92 ± 0.15 nM | B2
3 | 18 ± 8 nM | B3

biological target: T3, MMP10 catalytic domain (MMP10CAT) (UniProt P09238 99-263); experiment: as above; conditions: both partners purified
T3 construct: catalytic domain of MMP10 (stromelysin); source: purified as previously described [66, 91]
T3 sequence (P09238 99-263): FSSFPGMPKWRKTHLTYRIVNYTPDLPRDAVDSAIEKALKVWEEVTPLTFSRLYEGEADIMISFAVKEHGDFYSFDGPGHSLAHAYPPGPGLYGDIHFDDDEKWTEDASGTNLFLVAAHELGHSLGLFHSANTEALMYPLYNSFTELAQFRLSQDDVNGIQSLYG

Row | Ki | Binder
4 | 3.5 ± 0.8 nM | B1
5 | 3.2 ± 0.4 nM | B2
6 | 40 ± 14 nM | B3

biological target: T4, MMP14 catalytic domain (MMP14CAT, residues 112-292) (human, UniProt P50281 112-292, conjugated to DyLight-488 for the yeast display sorting and flow cytometry); experiment: cell-based or functional assay; conditions: not given

Row | inhibition of MMP2 activation by MMP14 in U87MG cells (gelatin zymography of media, 100 nM inhibitor, 48 h) | inhibition of trans-well migration of MCF-7-MMP14 cells (100 nM inhibitor, 24 h) | Binder
7 | 45% | 30% | B1
8 | 45% | 38% | B2
9 | 50% | ~50% | B4

Biological target: T2, MMP9 catalytic domain lacking the …
Experiment: cell-based or functional assay
Conditions: not given

Row | inhibition of the gelatin-degrading activity of MMP9 from MCF-7-MMP9 supernatant (gelatin zymography, gel incubated with 100 nM inhibitor) | Binder
10 | ~86% | B1
11 | ~75% | B3
12 | ~82% | B5

biological target: T4, MMP14 catalytic domain (MMP14CAT, …); experiment: enzyme inhibition assay (fluorogenic substrate, fit to Morrison's tight binding equation); 0.0075 nM MMP14CAT or MMP9CAT (MMP1CAT, MMP10CAT: concentration not stated) incubated with 0.4-25 nM or 1.5-500 nM inhibitor for 1 h at 37 C in TCNB buffer (50 mM Tris-HCl pH 7.5, 100 mM NaCl, 5 mM CaCl2, 0.05% Brij), then 15 uM Mca-Pro-Leu-Gly-Leu-Dpa-Ala-Arg-NH2; Ki from the apparent Ki; mean of three experiments; conditions: both partners purified

Row | Ki | Binder
13 | 5 ± 1 nM | B1
14 | 0.03 ± 0.003 nM | B2
15 | 0.024 ± 0.005 nM | B4
16 | 832 ± 44 nM | B3
17 | 240 ± 31 nM | B5

Biological target: T2, MMP9 catalytic domain lacking the …
Experiment: as above
Conditions: both partners purified

Row | Ki | Binder
18 | 0.5 ± 0.04 nM | B1
19 | 3.58 ± 0.5 nM | B2
20 | 1.25 ± 0.2 nM | B4
21 | 1.2 ± 0.007 nM | B3
22 | 0.78 ± 0.02 nM | B5

Source: paper PMC6112833, “Combinatorial engineering of N-TIMP2 variants that selectively inhibit MMP9 and MMP14 function in the cell” (Oncotarget, 2018)
